Reference: US20030167129A1 (published 2003)
Where no end group is shown, it is not given here. [ ]: non-standard residue; d: D form. 1Nal = N[C@@H](Cc1cccc2ccccc12)C(=O)O; 2Nal = N[C@@H](Cc1ccc2ccccc2c1)C(=O)O; Tic = O=C(O)[C@@H]1Cc2ccccc2CN1; Aib = CC(C)(N)C(=O)O

B1: CXCR4-GST (receptor, human, UniProt P61073 1-352, looked up)
chain: MEGISIYTSDNYTEEMGSGDYDSMKEPCFREENANFNKIFLPTIYSIIFLTGIVGNGLVILVMGYQKKLRSMTDKYRLHLSVADLLFVITLPFWAVDAVANWYFGNFLCKAVHVIYTVNLYSSVLILAFISLDRYLAIVHATNSQRPRKLLAEKVVYVGVWIPALLLTIPDFIFANVSEADDRYICDRFYPNDLWVVVFQFQHIMVGLILPGIVILSCYCIIISKLSHSKGHQKRKALKTTVILILAFFACWLPYYIGISIDSFILLEIIKQGCEFENTVHKWISITEALAFFHCCLNPILYAFLGAKFKTSAQHALTSVSRGSSLKILSKGKRGGHSSVSTESESSSFHSS
notes: whole, on cells; Full-length receptor expressed by baculovirus in High Five or Sf9 insect cells; assayed as membrane preparations or solubilized and immobilized on glutathione resin; also called GST-CXCR4 (High Five); CXCR4 with C-terminal GST tag; not shown: C-terminal GST tag
B2: CPI-1500 (peptide)
peptide: ARSLI[2Nal]R[Tic]ARR[2Nal]RR-NH2
modifications: N-terminus assumed
SMILES: CC[C@H](C)[C@H](NC(=O)[C@H](CC(C)C)NC(=O)[C@H](CO)NC(=O)[C@H](CCCNC(=N)N)NC(=O)[C@H](C)N)C(=O)N[C@@H](Cc1ccc2ccccc2c1)C(=O)N[C@@H](CCCNC(=N)N)C(=O)N1Cc2ccccc2C[C@H]1C(=O)N[C@@H](C)C(=O)N[C@@H](CCCNC(=N)N)C(=O)N[C@@H](CCCNC(=N)N)C(=O)N[C@@H](Cc1ccc2ccccc2c1)C(=O)N[C@@H](CCCNC(=N)N)C(=O)N[C@@H](CCCNC(=N)N)C(N)=O
B3: CPI-1366 (peptide)
peptide: Ac-ARSLI[2Nal]RAARR[2Nal]RR
notes: also called Ac-ARSLI(2-Nal)RAARR(2-Nal)RR
B4: CPI-1456 (peptide)
peptide: RRARSLI[2Nal]RAARR[2Nal]RR
notes: also called RRARSLI(2-Nal)RAARR(2-Nal)RR
B5: CPI-1221 (peptide)
peptide: MARSLIWRPAKAKKK
notes: Original 15-mer consensus peptide; also called M-A-R-S-L-I-W-R-P-A-K-A-K-K-K

These binders were tested against T1, SDF-1α (UniProt P48061-2 22-89, 125I label on the radioligand form) (assay: radioligand saturation binding, [125I]-SDF-1α on membrane preparations of GST-CXCR4 (High Five)).
T1 construct: Labelled and unlabelled forms are kept as one molecule
T1 sequence (P48061 22-89 limits assumed): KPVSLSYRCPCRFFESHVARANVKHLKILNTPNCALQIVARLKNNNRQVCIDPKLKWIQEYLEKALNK
Procedure: Whole cells from Sf9 and High five cell lines were lysed using hypotonic buffers (10 mM Tris, pH 7.4, 5 mM EDTA), and membrane preparations were made by homogenization and centrifugation using standard techniques known to those skilled in the art. […] For filtration and washing, the reaction was transferred to Millipore Multiscreen filter plates (HATF 0.45 μm; pre-blocked with 10% BSA) (Bedford, Mass.), filtered using vacuum, washed 4-5 times with 200 μL ice-cold buffer, and radioactive counts bound were detected using scintillation counting. All points were done in triplicate. Uninfected cells were used as a control for this experiment. […] Analyses of KD and IC₅₀ were performed using non-linear curve fitting in Kaleidagraph (software program sold by Synergy Software, Reading, Pa.).

With B1 as the binder, how does the Kd read?
Its Kd is 3.27 nM.

These binders were tested against T2, CXCR4 (CXC chemokine receptor 4), tagged construct not stated (human, UniProt P61073 1-352) (assay: binding inhibition curves, [125I]-SDF1α displacement).
T2 construct: whole, on cells; Receptor of the radioligand displacement assays of the peptides; in insect cell membranes; also called the receptor; CXCR4-containing membranes

Does ARSLI[2Nal]RAARR[2Nal]RR (also called ARSLI(2-Nal)RAARR(2-Nal)RR) [CPI-1365] bind?
Result: binds

The binders below were run against CXCR4 as HIV co-receptor in the HIV infectivity assay (HELA / Magi cells) (UniProt P61073 1-352, limits assumed) (assay: cell-based or functional assay).

Which “inhibition of HIV IIIb infection, EC50” value does the source give for B2 here?
The value was 280 nM.

The binders below were run against T2, CXCR4 (CXC chemokine receptor 4), … (assay: inhibition of [125I]-SDF1α binding to CXCR4).

Does B3 bind?
Result: binds

Does ARSLI[2Nal]RHARR[2Nal]RR (also called ARSLI(2-Nal)RHARR(2-Nal)RR) [CPI-1443] bind?
Result: binds

Does ARSLI[2Nal]RPARR[2Nal]RR (also called ARSLI(2-Nal)RPARR(2-Nal)RR) [CPI-1701] bind?
Result: binds

Does MARSLIWRAAKAKKK [CPI-1295] bind?
Result: binds

Does MARSFIWRPAKAKKK [CPI-1296] bind?
Result: binds

Does MARSTIWRPAKAKKK [CPI-1298] bind?
Result: binds

Does MARSLIWRPAKAAKK [CPI-1301] bind?
Result: binds

Does MARSLIARPAKAKKK [CPI-1304] bind?
Result: binds

Does MARSLIWAPAKAKKK [CPI-1305] bind?
Result: binds

Does MARSLIWRPAAAKKK [CPI-1306] bind?
Result: binds

Does MARSAIWRPAKAKKK [CPI-1307] bind?
Result: binds

Does MARSLAWRPAKAKKK [CPI-1308] bind?
Result: binds

Does MARSLIWRPAKAKAK [CPI-1310] bind?
Result: binds

Does MARSLIWRPAKAKKA [CPI-1312] bind?
Result: binds

Does MARALIWRPAKAKKK [CPI-1328] bind?
Result: binds

Does MAASLIWRPAKAKKK [CPI-1329] bind?
Result: binds

Does MARSLIWGPAKAKKK [CPI-1334] bind?
Result: binds

Does MAASLIWRPAKAKKK [SEQ ID NO 12 (Table 1 row without a CPI number)] bind?
Result: binds

Does MARSLIWR[Tic]AKAKKK [CPI-1302] bind?
Result: binds

Does MARSLIWRP[Aib]KAKKK [CPI-1303] bind?
Result: binds

Does MARSLI[2Nal]RPAKAKKK [CPI-1309] bind?
Result: binds

Does MARSLI[1Nal]RPAKAKKK [CPI-1291] bind?
Result: binds

Does KKKARSLIWRPAKAKKK [CPI-1331] bind?
Result: binds

Does FHEFRSLIWRPAKAKKK [CPI-1300] bind?
Result: binds

Does YHEFRSLIWRPAKAKKK [CPI-1299] bind?
Result: binds

Does RSLIWRPAKAKKK [CPI-1247] bind?
Result: binds

Does ISLIWRPAKAKKK [CPI-1248] bind?
Result: binds

Does RSLIWRPAK [CPI-1250] bind?
Result: binds

Does MARSLIWRPAKKK [CPI-1249] bind?
Result: binds

Does MARSLIWRPAKARRR [CPI-1289] bind?
Result: binds

Does ARSLIWRPARRRRR [CPI-1297] bind?
Result: binds

Does FARSLIERAARRWRR [CPI-1330] bind?
Result: binds

Does MARSLIWEPARRWRR [CPI-1372] bind?
Result: binds

Does MARSLIWRPAERWRR [CPI-1373] bind?
Result: binds

Does MAESLIWRPARRWRR [CPI-1374] bind?
Result: binds

Does MARSLIWRPAREWRR [CPI-1377] bind?
Result: binds

Does ARSIWRLARRWRR [CPI-1382] bind?
Result: binds

Does FARSLI[2Nal]EAARR[2Nal]RR (also called FARSLI(2-Nal)EAARR(2-Nal)RR) [CPI-1389] bind?
Result: binds

Does FARSLI[2Nal]AARR[2Nal]RR [CPI-1390] bind?
Result: binds

Does B4 bind?
Result: binds

Does ARSLI[2Nal]R[Tic]ARR[2Nal]RR [CPI-1458] bind?
Result: binds

Does ARSLIWRLARRWRR [CPI-1425] bind?
Result: binds

Does ARSLIWRPAKAKKK [CPI-1292] bind?
Result: binds

Does MARSLIWRPARRRRR [CPI-1332] bind?
Result: binds

What follows are binders tested against T2, CXCR4 (CXC chemokine receptor 4), … (assay: radioligand displacement of [125I]-SDF-1 from CXCR4).

Which IC50 does the source give for B5 here?
The IC50 was roughly 60000 nM.
